Molecular target: rabbit anti-CS197 peptide antiserum raised against unconjugated peptide SEQUENCE ID NO 19
Assay: Western blot competition; antiserum pre-incubated overnight with peptide immunogen

B1: CS 197 synthetic peptide SEQUENCE ID NO 19 (peptide)
peptide: LPGTKAWMETEDTLGRVLSPEPDHDSLYHPPPEED
concentration of peptide immunogen that inhibited antibody binding to the blot bands: 2.5 FM
